± gives the half width of the 95% confidence interval.
assay: folding stability dG unfold (combined trypsin and chymotrypsin); higher = more stable
Outline: (§1)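 Mini-proteins designed to be under 80 residues and free of cysteine were carried in a PA-tagged cDNA display construct and digested with trypsin and with chymotrypsin. Each protease was applied at 11 threefold-diluted concentrations, alongside a no-protease condition, before sequencing. K50 came from Bayesian fitting of the sequencing counts, and unfolding free energy was obtained by comparing it with a sequence-predicted unfolded-state K50 and a shared folded-state K50, for each protease separately or for both together. Designs were retained only if their AlphaFold2 dimer inter-PAE exceeded 15.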

Sequence | folding stability dG unfold [kcal/mol]
SAGSMLFDPNGVLREVSVTPDPSTGTTVTTTLVQWPVDDGNGNSVLERITTTTSPSGTVTTSTEVRPAPSAG [r5_303_JUSTAS] | 0.138 ± 0.085
SAGGSAGGAANIPADQTLEFPTPDGYRRRLTYYPDEGLLVAEYVNPADGTPTFYTFDIPPDSTLSAGGSAGG [r6_406_TrMRF] | 1.21 ± 0.057
SAGGNRKFTLIIRIKAPPGDPDKMKEEVKEIANEIADIFRDHGVKVKVKVEYDPDNGEIYVQVEFEVPSAGG [r13_755_TrROS] | 4.78 ± 0.29
SAGGSPNYKINVEVEEYEPNPDNGKPYYRARIKIEWYNPENGREQTREIDFWMSPDKAEKFLKDILSAGGSA [r2_357_TrROS] | 2.22 ± 0.17
SAGGSAGGSAGGPVFTPVGAGDEDTVTTETLPDGSPVLRYTVPGTGVVEVALPDGTLLAESAGGSAGGSAGG [r11_601_JUSTAS] | -0.883 ± 0.22
SAGGSAGGSAIVILLPWGFLIEIKNIRMEMKRDPGNGEPKMDMHIPIEIIPIPPPGDPAFQESAGGSAGGSA [r18_6_TrROS] | 2.79 ± 0.14
AFTITGIEVTYDPATNTVTVTATVTGPDGSTATVTLTLTLPAPPPPVTTVTRTETRTLPDGTTVTVTETFTS [r1_125_TrROS_Hall] | 3.43 ± 0.13
SAGGSAGGSAVITLKPGETITITATITNADGSTVTITEVVRLPDGRLVVRVTNADGETYEFVLSAGGSAGGS [r12_31_TrROS_Hall] | 3.44 ± 0.089
SAGGSWRVSVQFPDGKKIKIPEEPIQKIIQEYGIPPDPGDPERMVERIANRIADKYGYPVKNIEIDSAGGSA [r2_83_TrROS] | 0.0663 ± 0.15

assay: folding stability dG unfold from chymotrypsin proteolysis; higher = more stable
Outline: as §1

Sequence | folding stability dG unfold [kcal/mol]
SAGGSAGGSELPEGVEVETEPIAEIEITDEDGRKYKISIEAVKIRGPDGKEFLVISVSIEELPSAGGSAGGS [r12_544_TrROS_Hall] | 4.16 ± 0.34
SAGGSAGGSSGMVKAEFGLVAPDGTPVSTRTLTFSSEEEIEEALAALPEFSLALVPDVKRGPLSAGGSAGGS [r12_182_JUSTAS] | 0.86 ± 0.13
SAGGKKKVIEIKIEIKVPKEELKNMTKEEIAELLKKELEKKGIKIKKIEIVEIEIDGDTVTITIRIELSAGG [r13_432_TrROS_Hall] | 2.92 ± 0.2
SAGGSAGGSAGMEPPEIKVEVSSDPTPSGMKVETIKDLGKGKTIIVLKPEDGSVSTSTLESAGGSAGGSAGG [r11_55_JUSTAS] | 0.286 ± 0.13
GENVPPKTVTVSAPVDPTTGRVTVNPGNTTVSISLPDGADVTLSFSTSMSEEEQLAFVEKEAAALNAALAAS [r1_25_JUSTAS] | 0.443 ± 0.055
SAGGSAGGSAGGELKLLRIEVTGRAPYPTELLKTVEIVLPNEDVTEEQIRELLKELGIELSAGGSAGGSAGG [r7_903_TrMRF] | -0.505 ± 0.26
SAGGSAGGSSPITIPIPLSELSEETLKKIAEENPEGETPIKIIKPDGTPVTIVVKPGGEIIGASAGGSAGGS [r12_1054_JUSTAS] | 1.09 ± 0.068
SAGGSAGGSGVTIPIWYKMDPGQPVPTAEEIQNIINELGFPIKDIKVQYHPDNGYVRAEITVKSAGGSAGGS [r12_1052_TrROS] | 0.828 ± 0.088
SAGSMLFDPNGVLREVSVTPDPSTGTTVTTTLVQWPVDDGNGNSVLERITTTTSPSGTVTTSTEVRPAPSAG [r5_303_JUSTAS] | 0.0881 ± 0.034
SAGGSAGGAANIPADQTLEFPTPDGYRRRLTYYPDEGLLVAEYVNPADGTPTFYTFDIPPDSTLSAGGSAGG [r6_406_TrMRF] | 1.43 ± 0.084
SAGGNRKFTLIIRIKAPPGDPDKMKEEVKEIANEIADIFRDHGVKVKVKVEYDPDNGEIYVQVEFEVPSAGG [r13_755_TrROS] | 5.12 ± 0.31
SAGGSPNYKINVEVEEYEPNPDNGKPYYRARIKIEWYNPENGREQTREIDFWMSPDKAEKFLKDILSAGGSA [r2_357_TrROS] | 2.56 ± 0.13
SAGGSAGGSAGGPVFTPVGAGDEDTVTTETLPDGSPVLRYTVPGTGVVEVALPDGTLLAESAGGSAGGSAGG [r11_601_JUSTAS] | -1.66 ± 0.79
SAGGSAGGSAIVILLPWGFLIEIKNIRMEMKRDPGNGEPKMDMHIPIEIIPIPPPGDPAFQESAGGSAGGSA [r18_6_TrROS] | 3.17 ± 0.039
AFTITGIEVTYDPATNTVTVTATVTGPDGSTATVTLTLTLPAPPPPVTTVTRTETRTLPDGTTVTVTETFTS [r1_125_TrROS_Hall] | 4.09 ± 0.048
SAGGSAGGSAVITLKPGETITITATITNADGSTVTITEVVRLPDGRLVVRVTNADGETYEFVLSAGGSAGGS [r12_31_TrROS_Hall] | 3.3 ± 0.12
SAGGSWRVSVQFPDGKKIKIPEEPIQKIIQEYGIPPDPGDPERMVERIANRIADKYGYPVKNIEIDSAGGSA [r2_83_TrROS] | 0.385 ± 0.13

Source: the supplement of paper PMC12764529
